# Experimental data: patent publication US20110269817A1 (University of California, published 2011)
# Target: Myc-tagged PER2 (transfected in JEG3 cells) (UniProt O54943 1-1257, limits assumed)
# Test: coimmunoprecipitation with FLAG antibody from cotransfected JEG3 cells, Western with anti-Myc (FIG. 5A)
# Procedure: (A) JEG3 cells were cotransfected with a series of expression vectors as described. Flag-tagged SIRT1 proteins were immunoprecipitated by FLAG antibody, and abundance of coimmunoprecipitated proteins was determined by western blotting using anti-Myc antibody (top right panel) and anti-SIRT1 antibody (bottom right panel). Left panels show the immunoblotting results of total cell lysates as an input.
# Chain of Myc-tagged PER2 (transfected in JEG3 cells) (O54943 whole entry): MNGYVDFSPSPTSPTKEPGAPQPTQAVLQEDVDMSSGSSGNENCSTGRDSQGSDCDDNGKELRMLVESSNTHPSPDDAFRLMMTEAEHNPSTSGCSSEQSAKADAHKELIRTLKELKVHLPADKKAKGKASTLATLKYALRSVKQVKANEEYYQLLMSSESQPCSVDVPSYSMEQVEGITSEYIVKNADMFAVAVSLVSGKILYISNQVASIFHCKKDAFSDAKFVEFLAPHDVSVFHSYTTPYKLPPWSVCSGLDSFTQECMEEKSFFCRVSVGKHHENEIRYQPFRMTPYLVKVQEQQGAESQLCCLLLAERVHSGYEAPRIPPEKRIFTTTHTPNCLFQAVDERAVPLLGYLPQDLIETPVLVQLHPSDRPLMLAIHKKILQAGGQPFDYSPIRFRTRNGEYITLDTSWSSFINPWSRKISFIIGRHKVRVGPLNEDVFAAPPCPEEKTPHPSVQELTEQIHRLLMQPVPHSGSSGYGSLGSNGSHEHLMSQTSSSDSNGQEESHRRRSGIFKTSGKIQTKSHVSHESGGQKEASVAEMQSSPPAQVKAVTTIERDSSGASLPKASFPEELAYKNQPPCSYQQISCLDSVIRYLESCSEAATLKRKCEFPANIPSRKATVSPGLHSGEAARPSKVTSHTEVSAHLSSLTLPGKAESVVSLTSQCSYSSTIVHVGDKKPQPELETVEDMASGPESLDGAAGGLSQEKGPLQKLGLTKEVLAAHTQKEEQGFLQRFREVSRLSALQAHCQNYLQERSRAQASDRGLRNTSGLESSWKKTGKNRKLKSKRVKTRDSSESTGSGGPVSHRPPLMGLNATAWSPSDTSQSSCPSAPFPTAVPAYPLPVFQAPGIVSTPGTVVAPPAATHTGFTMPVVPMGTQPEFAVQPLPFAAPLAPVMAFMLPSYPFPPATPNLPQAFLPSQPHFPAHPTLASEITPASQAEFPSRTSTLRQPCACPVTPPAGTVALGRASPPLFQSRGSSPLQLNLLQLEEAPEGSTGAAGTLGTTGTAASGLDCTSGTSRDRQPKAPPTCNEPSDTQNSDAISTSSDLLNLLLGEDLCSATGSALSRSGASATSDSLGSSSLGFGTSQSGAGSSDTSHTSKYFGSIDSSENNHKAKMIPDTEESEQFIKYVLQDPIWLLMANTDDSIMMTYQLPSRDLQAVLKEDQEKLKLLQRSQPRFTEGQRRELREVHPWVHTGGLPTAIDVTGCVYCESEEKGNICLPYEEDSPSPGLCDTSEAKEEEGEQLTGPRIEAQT
binder,measurement,value
"Flag-tagged SIRT1 (transfected in JEG3 cells) (enzyme, mouse, UniProt Q923E4 1-737, looked up, not shown: small tags and cut ends, The plasmid list holds a mouse N-terminal FLAG construct and also Flag-hSIRT1/pECE, so the species used in these experiments is not certain; also called Flag-SIRT1) MADEVALALQAAGSPSAAAAMEAASQPADEPLRKRPRRDGPGLGRSPGEPSAAVAPAAAGCEAASAAAPAALWREAAGAAASAEREAPATAVAGDGDNGSGLRREPRAADDFDDDEGEEEDEAAAAAAAAAIGYRDNLLLTDGLLTNGFHSCESDDDDRTSHASSSDWTPRPRIGPYTFVQQHLMIGTDPRTILKDLLPETIPPPELDDMTLWQIVINILSEPPKRKKRKDINTIEDAVKLLQECKKIIVLTGAGVSVSCGIPDFRSRDGIYARLAVDFPDLPDPQAMFDIEYFRKDPRPFFKFAKEIYPGQFQPSLCHKFIALSDKEGKLLRNYTQNIDTLEQVAGIQRILQCHGSFATASCLICKYKVDCEAVRGDIFNQVVPRCPRCPADEPLAIMKPEIVFFGENLPEQFHRAMKYDKDEVDLLIVIGSSLKVRPVALIPSSIPHEVPQILINREPLPHLHFDVELLGDCDVIINELCHRLGGEYAKLCCNPVKLSEITEKPPRPQKELVHLSELPPTPLHISEDSSSPERTVPQDSSVIATLVDQATNNNVNDLEVSESSCVEEKPQEVQTSRNVENINVENPDFKAVGSSTADKNERTSVAETVRKCWPNRLAKEQISKRLEGNQYLFVPPNRYIFHGAEVYSDSEDDVLSSSSCGSNSDSGTCQSPSLEEPLEDESEIEEFYNGLEDDTERPECAGGSGFGADGGDQEVVNEAIATRQELTDVNYPSDKS",binding result,no binding
